Data as given in PMC7289447.
Numbering of substitutions follows the chain as printed. Names and notes keep the numbering of the source. Each block holds one binder with its values, some of them ahead of it.

How the values were obtained:
[1] = target: T1, Hsc20 Q46Bpa, P53193; test: site-specific Bpa photo-crosslinking, SDS-PAGE band quantification; conditions: chain shown with the change; in the presence of ATP; UV irradiation; parent: est. 1.0; read off a plot
T1 chain: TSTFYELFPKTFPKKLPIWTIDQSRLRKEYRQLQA

[2] = target: T2, Hsc20 M51Bpa, P53193; test: as above; conditions: chain shown with the change; in the presence of ATP; UV irradiation; parent: est. 1.0; read off a plot
T2 chain: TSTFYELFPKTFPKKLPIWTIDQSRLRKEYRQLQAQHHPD

ratio to parent [1]: 0.22
ratio to parent [2]: 0.11
B1: Ssq1 wild-type D246A; E253A (protein)
chain: MLKSGRLNFLKLNINSRLLYSTNPQLTKKVIGIDLGTTNSAVAYIRDSNDKKSATIIENDEGQRTTPSIVAFDVKSSPQNKDQMKTLVGMAAKRQNAINSENTFFATKRLIGRAFNDKEVQRDMAVMPYKIVKCESNGQAYLSTSNGLIQSPSQIASILLKYLKQTSEEYLGEKVNLAVITVPAYFNDSQRQATKDAGKLAGLNVLRVINEPTAAALSFGIDDKRNNGLIAVYDLGGGTFDISILAIEDGVFAVRATNGDTHLGGEDFDNVIVNYIIDTFIHENPEITREEITKNRETMQRLKDVSERAKIDLSHVKKTFIELPFVYKSKHLRVPMTEEELDNMTLSLINRTIPPVKQALKDADIEPEDIDEVILVGGMTRMPKIRSVVKDLFGKSPNSSVNPDETVALGAAIQGGILSGEIKNVLLLDVTPLTLGIETFGGAFSPLIPRNTTVPVKKTEIFSTGVDGQAGVDIKVFQGERGLVRNNKLIGDLKLTGITPLPKGIPQIYVTFDIDADGIINVSAAEKSSGKQQSITVIPNSGLSEEEIAKLIEEANANRAQDNLIRQRLELISKADIMISDTENLFKRYEKLISSEKEYSNIVEDIKALRQAIKNFKANENDMSIDVNGIKKATDALQGRALKLFQSATKNQQNQGK

ratio to parent [1]: 0.28
ratio to parent [2]: 0.22
B2: Ssq1 wild-type E248A; D249A (protein)
chain: B1 chain with A246D, E248A, D249A, A253E
